This passage reports interaction score results from publication PMC10397247.

Where a chain is given by its changes, count along the chain named.

One test deals with T1, P4.
T1 chain: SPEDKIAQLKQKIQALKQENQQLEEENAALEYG
Description: two-hybrid library CC1.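 Further: natural log of median RNA to DNA barcode read ratio; higher means stronger binding.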

A further test has as its target T2, P4mS.
T2 chain: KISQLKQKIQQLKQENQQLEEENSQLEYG
In words: two-hybrid library CC1.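 Further: natural log of median RNA to DNA barcode read ratio; higher means stronger binding.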 The following applies: mean of both orientations.

A further test has as its target T3, P5SC1.
T3 chain: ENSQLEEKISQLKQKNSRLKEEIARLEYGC
In words: two-hybrid library CC1.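 Further: natural log of median RNA to DNA barcode read ratio; higher means stronger binding.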 The following applies: mean of both orientations.

The next test concerns the target T4, P5SC2.
T4 chain: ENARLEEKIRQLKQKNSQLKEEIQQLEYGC
In words: two-hybrid library CC1.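 Further: natural log of median RNA to DNA barcode read ratio; higher means stronger binding.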 The note with it: mean of both orientations.

Another test addresses T5, P5.
T5 chain: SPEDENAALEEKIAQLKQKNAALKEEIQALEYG
Description: two-hybrid library CC1. The following applies: mean of both orientations.

The next test deals with T6, P5mS.
T6 chain: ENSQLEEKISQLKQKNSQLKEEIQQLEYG
Description: two-hybrid library CC1. The note with it: mean of both orientations.

Another test deals with T7, P6SC1.
T7 chain: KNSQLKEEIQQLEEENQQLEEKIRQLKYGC
In words: two-hybrid library CC1. The note with it: mean of both orientations.

The next test concerns the target T8, P6SC2.
T8 chain: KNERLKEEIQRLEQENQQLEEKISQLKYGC
In words: two-hybrid library CC1. The following applies: mean of both orientations.

The next test addresses T9, P6.
T9 chain: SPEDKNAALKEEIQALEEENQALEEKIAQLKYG
In words: two-hybrid library CC1. The note with it: mean of both orientations.

For another test, the target named is T10, P6mS.
T10 chain: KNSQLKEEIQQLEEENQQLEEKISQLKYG
In words: two-hybrid library CC1. The note with it: mean of both orientations.

The next test has as its target T11, P7.
T11 chain: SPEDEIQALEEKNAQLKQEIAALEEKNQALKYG
Description: two-hybrid library CC1. The following applies: mean of both orientations.

For another test, the target named is T12, P7mS.
T12 chain: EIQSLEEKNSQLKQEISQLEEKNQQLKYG
In words: two-hybrid library CC1. The note with it: mean of both orientations.

The next test concerns the target T13, P8.
T13 chain: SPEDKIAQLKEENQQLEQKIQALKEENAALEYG
Description: two-hybrid library CC1. The following applies: mean of both orientations.

A further test has as its target T14, P8mS.
T14 chain: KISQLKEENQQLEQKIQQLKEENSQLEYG
Description: two-hybrid library CC1. The following applies: mean of both orientations.

The next test deals with T15, P9.
T15 chain: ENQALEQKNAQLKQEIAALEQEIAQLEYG
Description: two-hybrid library CC1. The following applies: mean of both orientations.

For a further test, the target named is T16, 4H1348-AA.
T16 chain: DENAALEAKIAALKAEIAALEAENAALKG
In words: two-hybrid library CCmax.

The target in a further test is T17, 4H1391-AA.
T17 chain: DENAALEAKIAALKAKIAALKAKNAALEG
Description: two-hybrid library CCmax. The following applies: mean of both orientations.

The next test concerns the target T18, 4H146-AA.
T18 chain: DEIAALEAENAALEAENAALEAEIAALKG
Description: two-hybrid library CCmax.

The next test concerns the target T19, 4H1809-AA.
T19 chain: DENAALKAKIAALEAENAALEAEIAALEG
Description: two-hybrid library CCmax. The note with it: mean of both orientations.

The target of a further test is T20, 4H1854-AA.
T20 chain: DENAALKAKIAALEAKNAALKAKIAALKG
Description: two-hybrid library CCmax. The following applies: mean of both orientations.

The target of the next test is T21, 4H189-AA.
T21 chain: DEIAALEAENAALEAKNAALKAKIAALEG
Description: two-hybrid library CCmax.

A further test addresses T22, 4H2248-AA.
T22 chain: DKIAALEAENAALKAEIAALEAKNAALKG
In words: two-hybrid library CCmax. The note with it: mean of both orientations.

For a further test, the target named is T23, 4H2283-AA.
T23 chain: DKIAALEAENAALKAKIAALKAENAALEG
Description: two-hybrid library CCmax. The following applies: mean of both orientations.

Another test concerns the target T24, 4H2713-AA.
T24 chain: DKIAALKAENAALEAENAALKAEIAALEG
Description: two-hybrid library CCmax. The following applies: mean of both orientations.

In a further test the target is T25, 4H2742-AA.
T25 chain: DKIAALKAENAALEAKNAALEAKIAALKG
In words: two-hybrid library CCmax. The note with it: mean of both orientations.

In a further test the target is T26, 4H2948-AA.
T26 chain: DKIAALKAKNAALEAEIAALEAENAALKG
Description: two-hybrid library CCmax. The following applies: mean of both orientations.

The next test addresses T27, 4H2991-AA.
T27 chain: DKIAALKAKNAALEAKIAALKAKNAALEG
Description: two-hybrid library CCmax. The following applies: mean of both orientations.

The target in another test is T28, 4H3029-AA.
T28 chain: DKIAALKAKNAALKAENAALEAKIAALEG
In words: two-hybrid library CCmax. The following applies: mean of both orientations.

Another test has as its target T29, 4H3066-AA.
T29 chain: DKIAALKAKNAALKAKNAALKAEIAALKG
Description: two-hybrid library CCmax. The following applies: mean of both orientations.

The target in another test is T30, 4H3102-AA.
T30 chain: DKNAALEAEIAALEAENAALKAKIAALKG
Description: two-hybrid library CCmax. The note with it: mean of both orientations.

A further test concerns the target T31, 4H3121-AA.
T31 chain: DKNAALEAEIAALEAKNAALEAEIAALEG
In words: two-hybrid library CCmax. The note with it: mean of both orientations.

The target in another test is T32, 4H3417-AA.
T32 chain: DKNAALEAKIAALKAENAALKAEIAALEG
In words: two-hybrid library CCmax. The following applies: mean of both orientations.

The target of a further test is T33, 4H3446-AA.
T33 chain: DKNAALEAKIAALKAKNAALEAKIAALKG
Description: two-hybrid library CCmax. The following applies: mean of both orientations.

The next test deals with T34, 4H3591-AA.
T34 chain: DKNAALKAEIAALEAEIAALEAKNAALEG
In words: two-hybrid library CCmax. The note with it: mean of both orientations.

A further test concerns the target T35, 4H3628-AA.
T35 chain: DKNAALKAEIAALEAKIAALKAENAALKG
Description: two-hybrid library CCmax. The note with it: mean of both orientations.

A further test has as its target T36, 4H3666-AA.
T36 chain: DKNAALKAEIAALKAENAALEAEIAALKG
In words: two-hybrid library CCmax. The following applies: mean of both orientations.

The target in the next test is T37, 4H3709-AA.
T37 chain: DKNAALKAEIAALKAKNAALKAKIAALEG
Description: two-hybrid library CCmax. The following applies: mean of both orientations.

The target in a further test is T38, 4H391-AA.
T38 chain: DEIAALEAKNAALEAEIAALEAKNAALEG
Description: two-hybrid library CCmax. The following applies: mean of both orientations.

Another test addresses T39, 4H3920-AA.
T39 chain: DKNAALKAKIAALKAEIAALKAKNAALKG
In words: two-hybrid library CCmax. The following applies: mean of both orientations.

A further test addresses T40, 4H3939-AA.
T40 chain: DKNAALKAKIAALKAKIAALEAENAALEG
In words: two-hybrid library CCmax. The note with it: mean of both orientations.

The next test concerns the target T41, 4H428-AA.
T41 chain: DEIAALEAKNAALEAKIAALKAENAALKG
Description: two-hybrid library CCmax. The note with it: mean of both orientations.

The target in a further test is T42, 4H478-AA.
T42 chain: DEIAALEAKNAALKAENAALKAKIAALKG
Description: two-hybrid library CCmax. The note with it: mean of both orientations.

The target of the next test is T43, 4H497-AA.
T43 chain: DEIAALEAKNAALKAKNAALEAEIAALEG
In words: two-hybrid library CCmax. The note with it: mean of both orientations.

A further test deals with T44, 4H656-AA.
T44 chain: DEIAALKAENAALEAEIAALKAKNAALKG
Description: two-hybrid library CCmax. The note with it: mean of both orientations.

A further test concerns the target T45, 4H675-AA.
T45 chain: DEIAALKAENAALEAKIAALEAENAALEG
In words: two-hybrid library CCmax. The note with it: mean of both orientations.

The next test concerns the target T46, 4H971-AA.
T46 chain: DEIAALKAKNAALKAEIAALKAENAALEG
Description: two-hybrid library CCmax.

B1: P4 (peptide)
chain: T1 chain
As for B1, the interaction score in the test with P4 was -3; in the test with P4mS, -2.91; with P5SC1 it was -2.83; with P5SC2, -2.74; with P5 it was -3.06; with P5mS it was -2.91. The interaction score with P6SC1 is -2.87; in the test with P6SC2, -2.66; with P6, -2.83; in the test with P6mS it was -2.85; with P7, -2.74; with P7mS it was -2.77. Further, the interaction score in the test with P8 was -2.99; with P8mS, -2.82; with P9, -2.29.

B2: 4H1348-AA (peptide)
chain: DENAALEAKIAALKAEIAALEAENAALKG
As to B2, the interaction score was 1.56 in the test with 4H1348-AA; -0.755 in the test with 4H1391-AA; -2.73 with 4H146-AA; -1.86 in the test with 4H1809-AA; -1.01 with 4H1854-AA; -1.2 in the test with 4H189-AA. Also, the interaction score with 4H2248-AA is -1.37; in the test with 4H2283-AA, -1.14; with 4H2713-AA, -1.2; in the test with 4H2742-AA, -1.31; with 4H2948-AA, -1.13; with 4H2991-AA, -1.75. Moreover, the interaction score in the test with 4H3029-AA is -1.57; in the test with 4H3066-AA, -2.16; with 4H3102-AA, -1.34; with 4H3121-AA, -1.43; with 4H3417-AA, -1.13; in the test with 4H3446-AA it was -1.25. Further, the interaction score in the test with 4H3591-AA is 0.665; with 4H3628-AA, 2.05; with 4H3666-AA it was -1.46; with 4H3709-AA, -1.57; in the test with 4H391-AA, -1.94; with 4H3920-AA, 1.37. In addition, the interaction score with 4H3939-AA is 0.262; with 4H428-AA it was -0.542; in the test with 4H478-AA, 0.507; with 4H497-AA, -2.02; with 4H656-AA, -0.833; with 4H675-AA, -1.36. For the same molecule, the interaction score with 4H971-AA was -1.78.
